Ka, koff and kon data for ten molecules are collected here from patent publication US6072035.

First the molecules themselves.
B1: reshaped human C21 antibody C21-H1/L3 (antibody, V domains shown)
VH: QVQLVQSGAEVKKPGASVKVSCKASGYTFSMYWLEWVKQRPGHGLEWVGEISPGTFTTNYNEKFKAKATFTADTSTNTAYMELSSLTSEDTAVYYCARFSHFSG
VL: EIVLTQSPGTLSLSPGERATLSCRASQSIGTNIHWYQQKPGQAPRLLIKYASESISGIPSRFSGSGSGTDFTLTISRLEPEDFAMYYCQQSDSWPTTFGQGTKVEIK
B2: reshaped human C21 antibody C21-H1/L1 (antibody, V domains shown)
VH: QVQLVQSGAEVKKPGASVKVSCKASGYTFSMYWLEWVKQRPGHGLEWVGEISPGTFTTNYNEKFKAKATFTADTSTNTAYMELSSLTSEDTAVYYCARFSHFSG
VL: DILLTQSPGTLSLSPGERATLSCRASQSIGTNIHWYQQKPGQAPRLLIKYASESISGIPSRFSGSGSGTDFTLTISRLEPEDFAMYY
B3: reshaped human C21 antibody C21-H3/L1 (antibody, V domains shown)
VH: QVQLVQSGAEVKKPGASVKVSCKASGYTFSMYWLEWVRQAPGHGLEWVGEISPGTFTTNYNEKFKARATFTADTSTNTAYMELSSLRSEDTAVYYCARFSHFSG
VL: DILLTQSPGTLSLSPGERATLSCRASQSIGTNIHWYQQKPGQAPRLLIKYASESISGIPSRFSGSGSGTDFTLTISRLEPEDFAMYY
B4: reshaped human C21 antibody C21-Hay3/L2 (antibody, V domains shown)
VH: QVQLVQSGAEVKKPGASVKVSCKASGYTFSMYWLEWVRQAPGQRLEWMGEISPGTFTTNYNEKFKARATFTADTSASTAYMELSSLRSEDTAVYYCARFSHFSGSNYDYFDYWGQGTLVTVSS
VL: DILLTQSPGTLSLSPGERATLSCRASQSIGTNIHWYQQKPGQAPRLLIKYASESISGIPDRFSGSGSGTDFTLTISRLEPEDFAMYYCQQSDSWPTTFGQGTKVEIK
B5: reshaped human C21 antibody C21-H1/L2 (antibody, V domains shown)
VH: QVQLVQSGAEVKKPGASVKVSCKASGYTFSMYWLEWVKQRPGHGLEWVGEISPGTFTTNYNEKFKAKATFTADTSTNTAYMELSSLTSEDTAVYYCARFSHFSG
VL: DILLTQSPGTLSLSPGERATLSCRASQSIGTNIHWYQQKPGQAPRLLIKYASESISGIPDRFSGSGSGTDFTLTISRLEPEDFAMYYCQQSDSWPTTFGQGTKVEIK
B6: reshaped human C21 antibody C21-H3/L3 (antibody, V domains shown)
VH: QVQLVQSGAEVKKPGASVKVSCKASGYTFSMYWLEWVRQAPGHGLEWVGEISPGTFTTNYNEKFKARATFTADTSTNTAYMELSSLRSEDTAVYYCARFSHFSG
VL: EIVLTQSPGTLSLSPGERATLSCRASQSIGTNIHWYQQKPGQAPRLLIKYASESISGIPSRFSGSGSGTDFTLTISRLEPEDFAMYYCQQSDSWPTTFGQGTKVEIK
B7: reshaped human C21 antibody C21-H3/L2 (antibody, V domains shown)
VH: QVQLVQSGAEVKKPGASVKVSCKASGYTFSMYWLEWVRQAPGHGLEWVGEISPGTFTTNYNEKFKARATFTADTSTNTAYMELSSLRSEDTAVYYCARFSHFSG
VL: DILLTQSPGTLSLSPGERATLSCRASQSIGTNIHWYQQKPGQAPRLLIKYASESISGIPDRFSGSGSGTDFTLTISRLEPEDFAMYYCQQSDSWPTTFGQGTKVEIK
B8: reshaped human C21 antibody C21-Hay3/L3 (antibody, V domains shown)
VH: QVQLVQSGAEVKKPGASVKVSCKASGYTFSMYWLEWVRQAPGQRLEWMGEISPGTFTTNYNEKFKARATFTADTSASTAYMELSSLRSEDTAVYYCARFSHFSGSNYDYFDYWGQGTLVTVSS
VL: EIVLTQSPGTLSLSPGERATLSCRASQSIGTNIHWYQQKPGQAPRLLIKYASESISGIPSRFSGSGSGTDFTLTISRLEPEDFAMYYCQQSDSWPTTFGQGTKVEIK
B9: reshaped human C21 antibody C21-Hay3/L1 (antibody, V domains shown)
VH: QVQLVQSGAEVKKPGASVKVSCKASGYTFSMYWLEWVRQAPGQRLEWMGEISPGTFTTNYNEKFKARATFTADTSASTAYMELSSLRSEDTAVYYCARFSHFSGSNYDYFDYWGQGTLVTVSS
VL: DILLTQSPGTLSLSPGERATLSCRASQSIGTNIHWYQQKPGQAPRLLIKYASESISGIPSRFSGSGSGTDFTLTISRLEPEDFAMYY
B10: murine monoclonal antibody TES-C21 (antibody, V domains shown)
VH: QVQLQQSGAELMKPGASVKISCKTTGYTFSMYWLEWVKQRPGHGLEWVGEISPGTFTTNYNEKFKAKATFTADTSSNTAYLQLSGLTSEDSAVYFCARFSHFSGSNYDYFDYWGQGTSLTVSS
VL: DILLTQSPAILSVSPGERVSFSCRASQSIGTNIHWYQQRTDGSPRLLIKYASESISGIPSRFSGSGSGTEFTLNINSVESEDIADYYCQQSDSWPTTFGGGTKLEIK

The first experiment has as its target human IgE; monoclonal antibody SE44 (human) (UniProt P01854). The experiment is described as follows: BIAcore, antibody captured by anti-human IgG, IgE SE44 as analyte.
Turning to B1, the Ka worked out at 4.7e+09 M⁻¹, the koff amounted to 6.2e-05 s⁻¹ and the kon was 290000 M⁻¹ s⁻¹.
B2 returned a Ka of 8.7e+09 M⁻¹, a koff of 3e-05 s⁻¹ and a kon of 260000 M⁻¹ s⁻¹.
The like results for B3 were, in that order, 1.32e+10 M⁻¹, 1.9e-05 s⁻¹ and 250000 M⁻¹ s⁻¹.
The matching figures for B4: 8.1e+09 M⁻¹, 3.1e-05 s⁻¹ and 250000 M⁻¹ s⁻¹.
The matching figures for B5: 4.9e+09 M⁻¹, 5.7e-05 s⁻¹ and 280000 M⁻¹ s⁻¹.
For the molecule B6, the Ka worked out at 7.4e+09 M⁻¹, the koff is 3.5e-05 s⁻¹ and the kon turned out to be 260000 M⁻¹ s⁻¹.
For B7, the Ka is 5.7e+09 M⁻¹, the koff amounted to 4.4e-05 s⁻¹ and the kon came to 250000 M⁻¹ s⁻¹.
In turn, B8 showed a Ka of 1.6e+09 M⁻¹, a koff of 0.000159 s⁻¹ and a kon of 260000 M⁻¹ s⁻¹.
The matching figures for B9: 6.1e+09 M⁻¹, 4.1e-05 s⁻¹ and 250000 M⁻¹ s⁻¹.

The next experiment has the same target. The experiment is described as follows: BIAcore, antibody captured by anti-mouse IgG1, IgE SE44 as analyte.
B10 returned a Ka of 9.2e+09 M⁻¹, a koff of 2.6e-05 s⁻¹ and a kon of 240000 M⁻¹ s⁻¹.
